Target: CaV1.2 IQ domain (Homo sapiens, UniProt Q13936, Ca2+)
Assay: ITC

Sequence of CaV1.2 IQ domain (Q13936 1665-1685): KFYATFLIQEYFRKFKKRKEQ

B1: CaBP1 C-lobe (protein)
chain: ADMIGVKELRDAFREFDTNGDGEISTSELREAMRKLLGHQVGHRDIEEIIRDVDLNGDGRVDFEEFVRMMSR
Kd: 10.5 nM

— publication PMC3839849 (2013)
